Results reported in US20210198377A1 (XDCEXPLORER SHANGHAI, published 2021).

B1: Chimeric Antibody 28D4 (antibody, V domains shown)
VH: DVQLVESGGGLVRPGGSLKLSCAASGFTFSNYVMSWARQSPEKRLEWVAEISTGGSHTYYSDTVTGRFTISRDNAKKALYLEMSSLRSEDTAIYYCIMFYYGSSYSMDYWGQGTSVTVSS
VL: DIQMTQSTSSLSASLGDRITISCRASQDIRNYLNWYQQKPDGTVKLLIYHTSRLHSGVPSRFSGSGSGTDYSLTISNLEQEDIATYFCQQGDTLPLTFGAGTRLELK
B2: Chimeric Antibody 12B12-MMAE (antibody, human IgG1, DAR about 3, V domains shown)
VH: DVQLVESGGGLVQPGGSRKLSCAASGFTFSNFGMHWVRQAPEKGLEWVAYISSGSTSFYYADTVKGRFTISRDNPKNTLFLQMTSLRSEDTAMYYCSRTNSLLRGFFDAWGAGTTVTVSS
VL: DIVLTQSPASLAVSLGQRATISCRASQSVSSSSYTYLHWYQQKPGQPPKLLIKSASNLESGVPARFSGTGSGTDFTLNIHPVEEEDTATYYCQHSWEIPLTFGAGTKLELK
modifications: MC-VC-PAB-MMAE on cysteines after TCEP reduction, sites not stated
B3: Chimeric Antibody 12B12 (antibody, V domains shown)
VH: DVQLVESGGGLVQPGGSRKLSCAASGFTFSNFGMHWVRQAPEKGLEWVAYISSGSTSFYYADTVKGRFTISRDNPKNTLFLQMTSLRSEDTAMYYCSRTNSLLRGFFDAWGAGTTVTVSS
VL: DIVLTQSPASLAVSLGQRATISCRASQSVSSSSYTYLHWYQQKPGQPPKLLIKSASNLESGVPARFSGTGSGTDFTLNIHPVEEEDTATYYCQHSWEIPLTFGAGTKLELK
B4: Chimeric Antibody 12B12-DM1 (antibody, human IgG1, DAR about 3, V domains shown)
VH: DVQLVESGGGLVQPGGSRKLSCAASGFTFSNFGMHWVRQAPEKGLEWVAYISSGSTSFYYADTVKGRFTISRDNPKNTLFLQMTSLRSEDTAMYYCSRTNSLLRGFFDAWGAGTTVTVSS
VL: DIVLTQSPASLAVSLGQRATISCRASQSVSSSSYTYLHWYQQKPGQPPKLLIKSASNLESGVPARFSGTGSGTDFTLNIHPVEEEDTATYYCQHSWEIPLTFGAGTKLELK
modifications: SMCC-DM1, sites not stated
B5: 39A11G5F2-MMAF (antibody, DAR 8, V domains shown)
VH: QVQLQQSGAELMKPGASMRLSCKATGYTFTGYWLEWIKRRPGHGLEWIGEILPGRGSTNYNEKFKGKATFTAETSSNTAYMQLTSLTTEDSAIYYCARGGRDFDNWGQGTTLTVSS
VL: DIQMTQSTSSLSASLGDRVTISCSASQGINNHLNWYQQKPDGTVKLLIYYTSSLHSGVPSRFSGSGSGTDYSLTISNLEPEDIAIYYCQQFSKLPYTFGGGTKVEMK
modifications: MC-MMAF on cysteines after TCEP reduction, sites not stated
B6: 52C9E9F6-MMAF (antibody, DAR 8, V domains shown)
VH: QVQLQQSGAELMKPGASVKLSCKATGYTFTGYWIEWIKQRPGHGLEWIGEILPGRGSTDYNEKFKGKATFTADTSSNTAYMQLSSLTTEDSAIYYCTRGRLDFTYWGQGTLVTVSA
VL: DIQMTQTTSSLSASLGDRVTISCSASQGIRNYLNWYQQKPDGTVKLLIYYTSSLHSGVPSRFSGSGSGTDYSLTISNLEPEDIATYYCQQYSKVPWTFGGGTKLEIK
modifications: MC-MMAF on cysteines after TCEP reduction, sites not stated
B7: 106D5G3D10-MMAF (antibody, DAR 8, V domains shown)
VH: EVQLVESGGGLVKPGGSLKLSCAASGFTFSDYGMHWVRQAPEKGLEWVGYISSGTYVVYYADTVKGRFTISRDNAKNTLFLQMTSLRSEDTAIYYCSTYGSNPFDYWGQGTTLTVSS
VL: QLVLTQSPAIMSASPGEKVTITCSATSSVSSMHWFQQKPVTSPKLWIYSTSNLASGVPTRFSGSGSGTSYSLTISRMEAEDAATYYCQQRSGYPPIFTFGSGTKLEIK
modifications: MC-MMAF on cysteines after TCEP reduction, sites not stated
B8: 28D4E6A9-MMAF (antibody, DAR 8, V domains shown)
VH: DVQLVESGGGLVRPGGSLKLSCAASGFTFSNYVMSWARQSPEKRLEWVAEISTGGSHTYYSDTVTGRFTISRDNAKKALYLEMSSLRSEDTAIYYCIMFYYGSSYSMDYWGQGTSVTVSS
VL: DIQMTQSTSSLSASLGDRITISCRASQDIRNYLNWYQQKPDGTVKLLIYHTSRLHSGVPSRFSGSGSGTDYSLTISNLEQEDIATYFCQQGDTLPLTFGAGTRLELK
modifications: MC-MMAF on cysteines after TCEP reduction, sites not stated
B9: 12B12C7C3-MMAF (antibody, DAR 8, V domains shown)
VH: DVQLVESGGGLVQPGGSRKLSCAASGFTFSNFGMHWVRQAPEKGLEWVAYISSGSTSFYYADTVKGRFTISRDNPKNTLFLQMTSLRSEDTAMYYCSRTNSLLRGFFDAWGAGTTVTVSS
VL: DIVLTQSPASLAVSLGQRATISCRASQSVSSSSYTYLHWYQQKPGQPPKLLIKSASNLESGVPARFSGTGSGTDFTLNIHPVEEEDTATYYCQHSWEIPLTFGAGTKLELK
modifications: MC-MMAF on cysteines after TCEP reduction, sites not stated
B10: 99E12C7H1-MMAF (antibody, DAR 8, V domains shown)
VH: QIQLVQSGPELKKPGETVKISCKPSGYTFTAYGLSWVKQAPGQGFQWMGWINTYSGVPTYTDDFKGRFAFSLETSAGTASLQITNLKNEDTATYFCARSSIPPFEYWGPGTTLTVSS
VL: SFVMTQSPKFLLVSVGDRVTITCKASQSVSNDVAWYQQKPGQPPRVLIYFASNRYTGVPDRFTGSGYGTDFTFTISTVQAEDLALYFCQQDYSSPWTFGGGTKLEIK
modifications: MC-MMAF on cysteines after TCEP reduction, sites not stated
B11: 5G4H10G5-MMAF (antibody, DAR 8, V domains shown)
VH: EVQLVESGGDLVQPGGSLKLFCAASGFTFSTYGLSWVRQTPDKRLELVATITNNDGSAYYPDSVKGRFTISRDKAKNTLFLQMTSLKSEDTAMYYCARETGFGSSYLFDYWGQGTLVTVSA
VL: NIVMTQTPKFLLVSAGDRVTITCKASQSVSNDVAWYQQKPGQSPKLLIYFATNRYTGVPNRFTGSGYGTEFTFTISSVQAEDLAVYFCQQDYSSPTFGGGTKLEIK
modifications: MC-MMAF on cysteines after TCEP reduction, sites not stated
B12: 103E2E9C2-MMAF (antibody, DAR 8, V domains shown)
VH: EVQLQQSGPVLVKPGASVKMSCEASGYSFIDYYMSWVKQSRGRSLEWIGVFNPYSGEIIYNQKFKGKATLTVDKSSSTAYMELSSLTSEDSGVYSCARLRISYYAIDYWGQGTSVAVSS
VL: ENVLTQSPAIMSASPGEKVTMTCRATSSVSSGHFHWYQQKSGASPKVWIYSTSNLASGVPARFSGSGSGTSFSLTISSVEAEDVATYFCQQYSGYPLTFGGGTKLEIK
modifications: MC-MMAF on cysteines after TCEP reduction, sites not stated
B13: 37H9C5G2-MMAF (antibody, DAR 8, V domains shown)
VH: QVQLQQSDAELVRPGASVKMSCKVSGYTFTDHTIHWMKQRPEQGLEWIGYIYPRDGSGTYNEKFKGKATLTADKSSSTAYMQLNSLTSEDSAVYFCARDGSSHYWYFDVWGTGTTVTVSS
VL: DIQMTQSPASLSASVGETVTITCRASEIIYNYLAWYQQKQGKSPQLLVYNAKTLAEGVPSRFSGSYSGTQFSLNINSLQSEDFGIYYCQHHHDTPLTFGAGTKLDLK
modifications: MC-MMAF on cysteines after TCEP reduction, sites not stated
B14: 36A10D8B12-MMAF (antibody, DAR 8, V domains shown)
VH: DVQLQESGPGMVKPSQSLSLTCTVTGYSITSGYDWHWIRHFPGNKLEWMGYISYSGNTNYNPSLKSRISITHNTSKNHFFLRLNSVTTEDTATYYCARGYGNWDAMDYWGQGTSVTVSS
VL: DIVMTQSQKFMSTSVGDRVSVTCKASQIVDTNVAWYQQKPGQSPKALISSASYRYSGVPDRFTGSGSGTDFTLTISNVQSEDLAEYFCQQYNSYPLTFGAGTKLELT
modifications: MC-MMAF on cysteines after TCEP reduction, sites not stated

Molecular target: T1, human TPBG (full length, on cells) (human, UniProt Q13641 32-420)
T1 sequence (looked up): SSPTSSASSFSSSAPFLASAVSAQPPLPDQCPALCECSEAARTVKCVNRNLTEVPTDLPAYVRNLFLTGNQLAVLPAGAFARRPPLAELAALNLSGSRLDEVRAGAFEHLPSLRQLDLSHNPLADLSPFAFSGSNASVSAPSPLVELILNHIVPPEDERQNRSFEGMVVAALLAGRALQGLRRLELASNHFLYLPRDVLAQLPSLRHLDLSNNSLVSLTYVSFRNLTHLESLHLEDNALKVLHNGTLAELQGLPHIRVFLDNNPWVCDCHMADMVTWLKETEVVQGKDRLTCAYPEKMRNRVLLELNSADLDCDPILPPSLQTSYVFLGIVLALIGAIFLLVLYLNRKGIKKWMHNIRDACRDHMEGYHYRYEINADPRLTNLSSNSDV
Experiment: cell-based or functional assay

| Binder | IC50 of cytotoxicity on recombinant 293-hTPBG cells (CellTiter-Glo) [pM] |
| --- | --- |
| B1 | 1140 |
| B2 | 33 |
| B3 | 13600 |
| B4 | 154 |

Molecular target: T1, human TPBG (full length, on cells)
Experiment: cell-based or functional assay
Remark: another data set of the same source

| Binder | IC50 of cytotoxicity on TPBG-positive NCI-H1299 cells (CellTiter-Glo) [pM] | IC50 of cytotoxicity on TPBG-positive NCI-H1568 cells (CellTiter-Glo) [pM] |
| --- | --- | --- |
| B2 | > 100000 | > 100000 |
| B4 | 10400 | 1270 |

Molecular target: T1, human TPBG (full length, on cells)
Experiment: cell-based or functional assay
Remark: another data set of the same source

| Binder | EC50 of cytotoxicity on TPBG-positive NCI-H1568 cells (CellTiter-Glo) [pM] |
| --- | --- |
| B5 | 285 |
| B6 | 1480 |
| B7 | 208 |
| B8 | 38 |
| B9 | 42 |
| B10 | 844 |
| B11 | 626 |
| B12 | 135 |
| B13 | 120 |
| B14 | 66 |
